Test results reported in patent publication US7514207B2, “Methods of screening for compounds that decrease phosphorylation of merlin and may be useful in cancer treatment” (Massachusetts Institute of Technology, priority 2001, dated 2009).

Legend:
merlin kinase = test: In-vitro merlin kinase assay with kinase inhibitors; assay type: biochemical; conditions: for concentration range inhibiting the merlin kinase: inhibition of the activity of the merlin kinase
[1] = target: T1, GST-merlin pseudo-substrate (residues 478-535 of merlin fused to glutathione-S-transferase), P35240
T1 chain: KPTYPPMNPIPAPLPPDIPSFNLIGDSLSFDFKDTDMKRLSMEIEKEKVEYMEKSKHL

[2] = target: merlin expressed from an inducible allele in the RT4-D6P2T cell line
[3] = test system: phosphorylation of merlin induced by activated Rac or cdc42; test: In-vivo merlin phosphorylation in co-transfected NIH3T3 cells (western blot); assay type: cell-based; conditions: NIH3T3 cells co-transfected with merlin, activated Rac or cdc42 and the PAK2 AID
Method: In the in-vitro kinase assays where full-length merlin was used, cells transfected with merlin expression vectors were extracted, and merlin was immunoprecipitated using a commercially available antibody SC-331 (Santa Cruz) and Protein A-agarose beads. In the in-vivo studies, cells were transfected with various expression vectors and harvested after 48 hours into SDS-boiling buffer (10 mM Tris pH 7.5, 50 mM NaF, and 1% SDS). Cells were scraped off the plates and boiled for 5′. Protein concentration was determined by the BCA method (Pierce) and resolved by 9% SDS-PAGE and western blot analysis.
The inhibitory fragment in PAK2 resides between residues 82-146 (equivalent to the 83-149 AID of PAK1). […] To further investigate the role of PAK2 in induction of merlin phosphorylation, the ability of the AID to inhibit this activity was assessed. NIH3T3 cells were co-transfected with expression vectors for merlin, activated Rac, or cdc42 and the PAK2 AID.

COC(=O)[C@@]1(O)C[C@H]2O[C@]1(C)n1c3ccccc3c3c4c(c5c6ccccc6n2c5c31)C(=O)NC4 [K252a]
concentration range inhibiting the merlin kinase (merlin kinase): mM range

CCCCCCOC(=O)[C@]1(O)C[C@@H]2O[C@@]1(C)n1c3ccccc3c3c4c(c5c6ccccc6n2c5c31)C(=O)NC4 [K-5720]
concentration range inhibiting the merlin kinase (merlin kinase): mM range

NCCNS(=O)(=O)c1cccc2cnccc12 [H9]
concentration up to which no effect on the merlin kinase was seen (merlin kinase; no effect up to this concentration): > 1 mM

B1: PAK2 of NIH3T3 cell extracts (endogenous) (protein)
chain: SDNGELEDKPPAPPVRMSSTIFSTGGKDPLSANHSLKPLPSVPEEKKPRNKIISIFSGTEKGSKKKEKERPEISPPSDFEHTIHVGFDAVTGEFTGMPEQWARLLQTSNITKLEQKKNPQAVLDVLKFYDSNTVKQKYLSFTPPEKDGFPSGTPALNTKGSETSAVVTEEDDDDEDAAPPVIAPRPDHTKSIYTRSVIDPIPAPVGDSNVDSGAKSSDKQKKKAKMTDEEIMEKLRTIVSIGDPKKKYTRYEKIGQGASGTVFTATDVALGQEVAIKQINLQKQPKKELIINEILVMKELKNPNIVNFLDSYLVGDELFVVMEYLAGGSLTDVVTETCMDEAQIAAVCRECLQALEFLHANQVIHRDIKSDNVLLGMEGSVKLTDFGFCAQITPEQSKRSTMVGTPYWMAPEVVTRKAYGPKVDIWSLGIMAIEMVEGEPPYLNENPLRALYLIATNGTPELQNPEKLSPIFRDFLNRCLEMDVEKRGSAKELLQHPFLKLAKPLSSLTPLILAAKEAMKSNR
kinase activity on the GST-merlin substrate after immunodepletion of PAK2 [1]: extracts immunodepleted for PAK2 (+PAK2 Ab) had a 2-3 fold reduction in kinase activity

B2: endogenous PAK1 of RT4 cells (protein)
chain: SNNGLDVQDKPPAPPMRNTSTMIGAGSKDPGTLNHGSKPLPPNPEEKKKKDRFYRSILAGDKTNKKKEKERPEISLPSDFEHTIHVGFDAVTGEFTGMPEQWARLLQTSNITKSEQKKNPQAVLDVLEFYNSKKTSNSQKYMSFTDKSAEDYNSSNTLNVKTVSETPAVPPVSEDEDDDDDATPPPVIAPRPEHTKSVYTRSVIEPLPVTPTRDVATSPISPTENNTTPPDALTRNTEKQKKKPKMSDEEILEKLRSIVSVGDPKKKYTRFEKIGQGASGTVYTAMDVATGQEVAIKQMNLQQQPKKELIINEILVMRENKNPNIVNYLDSYLVGDELWVVMEYLAGGSLTDVVTETCMDEGQIAAVCRECLQALEFLHSNQVIHRDIKSDNILLGMDGSVKLTDFGFCAQITPEQSKRSTMVGTPYWMAPEVVTRKAYGPKVDIWSLGIMAIEMIEGEPPYLNENPLRALYLIATNGTPELQNPEKLSAIFRDFLNRCLEMDVEKRGSAKELLQHQFLKIAKPLSSLTPLIAAAKEATKNNH
phosphorylation status (activation) of PAK1 by 2-dimensional protein analysis [2]: The basal levels of activated PAK1 were reduced under conditions of high merlin expression compared to conditions of low merlin expression

B3: PAK3 (transfected) (protein)
chain: MSDGLDNEEKPPAPPLRMNSNNRDSSALNHSSKPLPMAPEEKNKKARLRSIFPGGGDKTNKKKEKERPEISLPSDFEHTIHVGFDAVTGEFTGIPEQWARLLQTSNITKLEQKKNPQAVLDVLKFYDSKETVNNQKYMSFTSGDKSAHGYIAAHPSSTKTASEPPLAPPVSEEEDEEEEEEEDENEPPPVIAPRPEHTKSIYTRSVVESIASPAVPNKEVTPPSAENANSSTLYRNTDRQRKKSKMTDEEILEKLRSIVSVGDPKKKYTRFEKIGQGASGTVYTALDIATGQEVAIKQMNLQQQPKKELIINEILVMRENKNPNIVNYLDSYLVGDELWVVMEYLAGGSLTDVVTETCMDEGQIAAVCRECLQALDFLHSNQVIHRDIKSDNILLGMDGSVKLTDFGFCAQITPEQSKRSTMVGTPYWMAPEVVTRKAYGPKVDIWSLGIMAIEMVEGEPPYLNENPLRALYLIATNGTPELQNPERLSAVFRDFLNRCLEMDVDRRGSAKELLQHPFLKLAKPLSSLTPLIIAAKEAIKNSSR
phosphorylation of the pseudo-substrate in an in-vitro kinase assay [1]: Only extracts from cells transfected with PAK2 and PAK3 were able to effectively phosphorylate the pseudo-substrate

B4: PAK2 wild-type (transfected) (protein)
chain: MSDNGELEDKPPAPPVRMSSTIFSTGGKDPLSANHSLKPLPSVPEEKKPRHKIISIFSGTEKGSKKKEKERPEISPPSDFEHTIHVGFDAVTGEFTGMPEQWARLLQTSNITKLEQKKNPQAVLDVLKFYDSNTVKQKYLSFTPPEKDGFPSGTPALNAKGTEAPAVVTEEEDDDEETAPPVIAPRPDHTKSIYTRSVIDPVPAPVGDSHVDGAAKSLDKQKKKTKMTDEEIMEKLRTIVSIGDPKKKYTRYEKIGQGASGTVFTATDVALGQEVAIKQINLQKQPKKELIINEILVMKELKNPNIVNFLDSYLVGDELFVVMEYLAGGSLTDVVTETCMDEAQIAAVCRECLQALEFLHANQVIHRDIKSDNVLLGMEGSVKLTDFGFCAQITPEQSKRSTMVGTPYWMAPEVVTRKAYGPKVDIWSLGIMAIEMVEGEPPYLNENPLRALYLIATNGTPELQNPEKLSPIFRDFLNRCLEMDVEKRGSAKELLQHPFLKLAKPLSSLTPLIMAAKEAMKSNR
phosphorylation of the pseudo-substrate in an in-vitro kinase assay [1]: Only extracts from cells transfected with PAK2 and PAK3 were able to effectively phosphorylate the pseudo-substrate

B5: PAK1 (transfected) (protein)
chain: MSNNGLDIQDKPPAPPMRNTSTMIGAGSKDAGTLNHGSKPLPPNPEEKKKKDRFYRSILPGDKTNKKKEKERPEISLPSDFEHTIHVGFDAVTGEFTGMPEQWARLLQTSNITKSEQKKNPQAVLDVLEFYNSKKTSNSQKYMSFTDKSAEDYNSSNALNVKAVSETPAVPPVSEDEDDDDDDATPPPVIAPRPEHTKSVYTRSVIEPLPVTPTRDVATSPISPTENNTTPPDALTRNTEKQKKKPKMSDEEILEKLRSIVSVGDPKKKYTRFEKIGQGASGTVYTAMDVATGQEVAIKQMNLQQQPKKELIINEILVMRENKNPNIVNYLDSYLVGDELWVVMEYLAGGSLTDVVTETCMDEGQIAAVCRECLQALEFLHSNQVIHRDIKSDNILLGMDGSVKLTDFGFCAQITPEQSKRSTMVGTPYWMAPEVVTRKAYGPKVDIWSLGIMAIEMIEGEPPYLNENPLRALYLIATNGTPELQNPEKLSAIFRDFLNRCLEMDVEKRGSAKELLQHQFLKIAKPLSSLTPLIAAAKEATKNNH
phosphorylation of the pseudo-substrate in an in-vitro kinase assay [1]: Other kinases, which are known effectors of cdc42/Rac, including PAK1, LIM-kinase and JNK, did not induce phosphorylation of merlin in these assays

B6: PAK2 AID: auto-inhibitory domain of PAK2, residues 82-146, expressed from pcDNA3; dominant negative fragment (protein)
chain: HTIHVGFDAVTGEFTGMPEQWARLLQTSNITKLEQKKNPQAVLDVLKFYDSNTVKQKYLSFTPPE
decrease in the ratio of hyper-phosphorylated to hypo-phosphorylated merlin [3]: 3-4 fold
